The values that follow come from paper PMC7897507.

The subject of series [1] is EcSSB WT (Escherichia coli). The series is described as follows: optical tweezers. The conditions noted are these: 12 pN, 50 mM Na+, 10 mM HEPES pH 7.5, room temperature, ssDNA at 12 pN unless stated, Mg2+ buffer adds 4 mM Mg2+, AFM 10 mM Na+, 10 mM Mg2+.
Series [2] has as its system EcSSB H55Y (Escherichia coli). Nature of the series: optical tweezers. As to conditions: 5 nM monomeric H55Y, k-b/kb, 12 pN, 50 mM Na+, 10 mM HEPES pH 7.5, room temperature, ssDNA at 12 pN unless stated, Mg2+ buffer adds 4 mM Mg2+, AFM 10 mM Na+, 10 mM Mg2+.

What is called Kd is a measure of binding affinity in units of concentration. In the case of 8.1 knt ssDNA (pBACgus11), the Kd in series [1] (EcSSB8 mode, fit of equilibrium fractions (Fig. 2C)) was 0.04 nM; in series [1] (single-domain unwrapped EcSSB8 mode, from k-b/kb), 0.08 nM; in series [2], 0.1 nM.
